From US20180185504A1
Each block holds one binder with its values, some of them ahead of it.

Legend:
[1] = target: mouse PRLR construct with an HA tag on HEK293/mPRLR cells (mouse) (UniProt Q08501); assay: FACS on HEK293/mPRLR cells
[2] = target: human prolactin (PRL) (human) (UniProt P01236); assay: ELISA: dimeric PRLR (3.38 pM to 200 nM) on plate-coated human PRL (1 µg/mL), HRP anti-Fc-gamma detection
Sequence of human prolactin (PRL) (human) (P01236 29-227 limits assumed): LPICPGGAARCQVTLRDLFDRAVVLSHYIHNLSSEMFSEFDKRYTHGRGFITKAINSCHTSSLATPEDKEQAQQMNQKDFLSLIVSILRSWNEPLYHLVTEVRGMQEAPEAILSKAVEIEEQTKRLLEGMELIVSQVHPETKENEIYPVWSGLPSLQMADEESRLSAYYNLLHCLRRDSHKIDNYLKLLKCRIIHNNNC

Sequence of mouse PRLR construct with an HA tag on HEK293/mPRLR cells (mouse) (Q08501 20-608): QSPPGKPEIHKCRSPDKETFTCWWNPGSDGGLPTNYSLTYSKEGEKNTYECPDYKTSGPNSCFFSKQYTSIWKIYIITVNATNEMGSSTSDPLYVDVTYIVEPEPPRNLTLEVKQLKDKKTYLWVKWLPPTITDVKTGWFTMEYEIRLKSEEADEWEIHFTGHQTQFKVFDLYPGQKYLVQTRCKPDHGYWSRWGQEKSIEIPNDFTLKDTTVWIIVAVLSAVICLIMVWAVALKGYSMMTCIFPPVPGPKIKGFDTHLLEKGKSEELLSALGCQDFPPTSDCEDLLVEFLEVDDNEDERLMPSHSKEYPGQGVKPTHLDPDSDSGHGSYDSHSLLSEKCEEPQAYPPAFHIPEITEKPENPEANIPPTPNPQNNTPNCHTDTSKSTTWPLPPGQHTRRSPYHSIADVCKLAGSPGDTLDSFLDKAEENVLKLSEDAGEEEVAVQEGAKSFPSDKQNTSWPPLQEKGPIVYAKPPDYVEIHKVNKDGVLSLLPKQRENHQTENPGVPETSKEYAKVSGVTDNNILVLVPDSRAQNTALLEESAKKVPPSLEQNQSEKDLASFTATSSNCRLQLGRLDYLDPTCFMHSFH

FACS Cell Binding (Fold Above Background) [1]: 56 fold
B1: H1H6801P (antibody, human IgG1, V domains shown)
VH: QVQLQQSGPGLVKPSQTLSLTCVISGDSVSSNTAWNWVRQSPSRGLEWLGRTYYRSKWYNDYAVSVKSRITINPDTSKNQFSLLMNSVTPEDTAVYYCARVVRGLNYFDYWGQGTLVTVSS
VL: DIVMTQSPDSLAVSLGERATINCKSSQSVLYNSNNKNYLAWYQQKPGQPPKLLIYWSSSRESGVPDRFSGSGSGTDFTLTISGLQAEDVAIYYCQQYSTIPYTFGQGTKLEIK

EC50 [2]: 4.9 nM
B2: dimeric form of human PRLR (Example 12 ELISA) (Fc fusion, part only; not given: Dimerising Fc part, part only)
chain, part: QLPPGKPEIFKCRSPNKETFTCWWRPGTDGGLPTNYSLTYHREGETLMHECPDYITGGPNSCHFGKQYTSMWRTYIMMVNATNQMGSSFSDELYVDVTYIVQPDPPLELAVEVKQPEDRKPYLWIKWSPPTLIDLKTGWFTLLYEIRLKPEKAAEWEIHFAGQQTEFKILSLHPGQKYLVQVRCKPDHGYWSAWSPATFIQIPSDFTMND
